# Data published in article PMC4844702, “Selective inhibition of the kinase DYRK1A by targeting its folding process” (Nature Communications, 2016).
# Biological target: CDC37 (UniProt Q16543)
# Test: anti-FLAG plate capture, CDC37-nanoKAZ luminescence
# Conditions: reference: wild type
fold change (sites S97),Substance,further results
–,DYRK1A (from UniProt Q13627) Y319F/Y321F,"fold change (sites Y319,Y321): 6.2"
54,DYRK1A (from UniProt Q13627) K188R kinase-dead,–
–,DYRK1A (from UniProt Q13627) Y321F,fold change (sites Y321): 5.2
2.2,DYRK1A (from UniProt Q13627) S97A,–
